{"source": "paper PMC6429324", "key": {"[1]": {"test_system": "bevacizumab (Avastin) (humanized IgG (organism not stated))", "assay": "bead pull-down, HT-RPLC of residual solution", "settings": "50 ug/mL bevacizumab, Plasma samples diluted 10x in 175 mM trehalose, 42 mM NaH2PO4, 8 mM Na2HPO4, 0.4% Tween-20, pH 7.4, 0.1% peptone, room temperature, 1 h, bead comparison: beads …; for fraction of antibody not captured (% not captured): immobilization effect, 5'-aminohexyl"}, "[2]": {"test_system": "bevacizumab (Avastin) (humanized IgG (organism not stated))", "assay": "bead pull-down, HT-RPLC of eluate", "settings": "10 ug/mL in human plasma, 5'-biotin, Plasma samples diluted 10x in 175 mM trehalose, 42 mM NaH2PO4, 8 mM Na2HPO4, 0.4% Tween-20, pH 7.4, 0.1% peptone, room temperature, 1 h, bead comparison: beads …"}}, "data": [{"sequence": "GCGGTTGGTGGTAGTTACGTTCGC [anti-bevacizumab DNA aptamer, 5'-aminohexyl]", "values": [{"measurement": "fraction of antibody not captured (% not captured)", "setting": "[1]; carboxylic acid beads", "result": 85.5}, {"measurement": "fraction of antibody not captured (% not captured)", "setting": "[1]; tosylactivated beads", "result": 75.8}]}, {"sequence": "GCGGTTGGTGGTAGTTACGTTCGC [anti-bevacizumab DNA aptamer, 5'-biotin]", "values": [{"measurement": "binding signal", "setting": "[2]; first use of beads", "result": 101, "unit": "% recovery"}, {"measurement": "binding signal", "setting": "[2]; third use of beads", "result": 97.3, "unit": "% recovery"}, {"measurement": "binding signal", "setting": "[1]; streptavidin beads, 5'-biotin", "result": "> 99.8", "unit": "% captured"}]}]}
